Assay results: patent US20200199196A1 (WASHINGTON UNIVERSITY, published 2020)
Residue numbers refer to the chain shown, from its start. Names and notes keep the numbering of the source.

What was measured:
[1] = biological target: T1, monomeric RANK (monomeric fragment of RANK) (UniProt O35305 31-214, limits assumed); experiment: yeast surface display, flow cytometry titration (FIG. 13)
T1 construct: The monomeric RANK of the SPR and the RANK-6xHis of the yeast display are treated here as one molecule; also called RANK-6xHis; RANK-6His
T1 sequence (looked up): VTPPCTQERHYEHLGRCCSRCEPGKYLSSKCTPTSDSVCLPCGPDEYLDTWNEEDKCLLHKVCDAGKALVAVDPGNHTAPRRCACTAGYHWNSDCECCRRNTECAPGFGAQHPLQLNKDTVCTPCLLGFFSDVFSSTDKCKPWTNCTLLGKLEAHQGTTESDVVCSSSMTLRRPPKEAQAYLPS

[2] = biological target: T2, monomeric OPG (monomeric fragment of OPG) (UniProt O08712 22-197, limits assumed); experiment: yeast surface display, flow cytometry titration (FIG. 13A)
T2 construct: also called OPG-6xHis; unlabeled OPG
T2 sequence (looked up): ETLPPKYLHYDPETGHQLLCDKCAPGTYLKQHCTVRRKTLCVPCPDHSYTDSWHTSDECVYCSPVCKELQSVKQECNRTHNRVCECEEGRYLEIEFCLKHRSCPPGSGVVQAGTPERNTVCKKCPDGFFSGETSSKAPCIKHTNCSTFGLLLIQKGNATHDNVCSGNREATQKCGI

[3] = biological target: T3, RANK on mouse bone marrow macrophages (BMMs) (mouse, UniProt O35305 31-625); experiment: cell-based or functional assay
T3 sequence (looked up): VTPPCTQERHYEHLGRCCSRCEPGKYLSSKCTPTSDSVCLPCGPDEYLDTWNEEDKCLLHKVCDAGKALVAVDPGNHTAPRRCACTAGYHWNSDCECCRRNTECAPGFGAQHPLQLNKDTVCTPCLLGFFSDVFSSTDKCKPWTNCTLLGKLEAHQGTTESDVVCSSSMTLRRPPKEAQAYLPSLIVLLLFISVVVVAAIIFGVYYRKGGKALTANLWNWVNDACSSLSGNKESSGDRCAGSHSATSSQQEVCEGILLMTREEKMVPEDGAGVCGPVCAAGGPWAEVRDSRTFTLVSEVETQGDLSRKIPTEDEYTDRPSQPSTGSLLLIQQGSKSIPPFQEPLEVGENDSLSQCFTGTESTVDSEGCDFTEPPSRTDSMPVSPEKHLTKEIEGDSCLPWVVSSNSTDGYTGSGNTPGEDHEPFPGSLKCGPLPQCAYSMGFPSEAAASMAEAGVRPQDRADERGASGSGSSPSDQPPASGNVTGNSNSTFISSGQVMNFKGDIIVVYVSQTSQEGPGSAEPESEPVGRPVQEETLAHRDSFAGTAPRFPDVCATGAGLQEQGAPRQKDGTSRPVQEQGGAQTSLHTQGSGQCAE

[4] = biological target: T2, monomeric OPG (monomeric fragment of …); experiment: SPR (FIG. 11)
[5] = biological target: T4, monomeric OPG (monomeric fragment of OPG) (UniProt O08712 22-197); experiment: SPR
T4 chain: T2 sequence (looked up)

[6] = biological target: T1, monomeric RANK (monomeric fragment of …); experiment: SPR, htRANKL coupled to the chip, monomeric RANK as analyte (FIG. 3C)
[7] = biological target: T4, monomeric OPG (monomeric fragment of …); experiment: SPR
[8] = biological target: T5, monomeric RANK (monomeric fragment of RANK) (UniProt O35305 31-214); experiment: SPR
T5 chain: T1 sequence (looked up)

[9] = biological target: T5, monomeric RANK (monomeric fragment of …); experiment: SPR
[10] = biological target: T4, monomeric OPG (monomeric fragment of …); experiment: yeast surface display titration
[11] = biological target: T5, monomeric RANK (monomeric fragment of …); experiment: yeast surface display titration
[12] = biological target: T2, monomeric OPG (monomeric fragment of …); experiment: yeast surface display, flow cytometry titration (FIG. 3B)
[13] = biological target: T1, monomeric RANK (monomeric fragment of …); experiment: SPR, htRANKL variant coupled to the chip, monomeric RANK as analyte (FIG. 3C)

B1: CDins/Q236H htRANKL (CDins combined with the Q236H mutation) (ligand)
chain: QPFAHLTINAASIPSGSHKVTLSSWYHDRGWAKISNMTLSNGKLRVNQDGFYYLYANISFRGGSHHETSGSVPTDYLHLMVYVVKTSEKIPSSHNLMKGGSTKNWSGNSEFHFYSINVGGFFKLRAGEEISIQVSNPSLLDPDQDATYFGAFKVQDID
notes: also called variant RANKL that combined CDins with the Q236H mutation
B1: no binding [1]; no binding [2].

B2: double-block, RANK^high scRANKL (ligand)
chain: QPFAHLTINAASIPSGSHKVTLSSWYHDRGWAKISNMTLSNGKLRVNQDGFYYLYANISFRGGSHHETSGSVPTDYLHLMVYVVKTSEKIPSSHNLMKGGSTKNWSGNSEFHFYSINVGGFFKLRAGEEISIQVSNPSLLDPDQDATYFGAFKVQDIDGGSGGGSGGGSGQPFAHLTINAASIPSGSHKVTLSSWYHDRGWAKISNMTLSNGKLRVNQDGFYYLYANISFRGGSHHETSGSVPTDYLHLMVYVVKTSEKIPSSHNLMKGGSTKNWSGNSEFHFYSINVGGFFKLRAGEEISIQVSNPSLLDPDQDATYFGAFKVQDIDGGSGGGSGGGSGQPFAHLTINAASIPSGSHKVTLSSWYHDRGWAEISNMTLSNGKLRVNQDGFYYLYANISFRHHETSGSVPTDYLHLMVYVVKTSEKIPSSHNLMKGGSTKNWSGNSEYYFYSINVGGFFKLRAGEEISIQVSNPSLLDPDQDATYFGAFKVQDIDSSGRENLYFQ
B2 was tested, and the “IC50 of inhibition of signaling / osteoclast formation stimulated by wild-type htRANKL (TRAP activity, FIG. 4D)” value [3] was ~10 nM.

B3: WT-SM htRANKL (homotrimeric mouse RANKL with the solubility mutations C220S/I246E) (ligand)
chain: QPFAHLTINAASIPSGSHKVTLSSWYHDRGWAKISNMTLSNGKLRVNQDGFYYLYANISFRHHETSGSVPTDYLQLMVYVVKTSEKIPSSHNLMKGGSTKNWSGNSEFHFYSINVGGFFKLRAGEEISIQVSNPSLLDPDQDATYFGAFKVQDID
notes: The format differs by assay; also called WT-SM RANKL; WT htRANKL
For B3, the “fold decrease in binding against WT htRANKL without the solubility mutations” value [4] was ~10 fold, the Kd [5] was 30.5 nM and the “t1/2 (dissociation time)” value [6] was 0.05 min. It also gave a Kd [7] of 30.5 nM, a Kd [8] of 1400 nM and a Kd [9] of 1400 nM. For the same binder, the Kd [10] was ~32.8 nM.

B4: wild-type homotrimeric RANKL without the solubility mutations (WT htRANKL as compared with WT-SM htRANKL in FIG. 5 and FIG. 11) (ligand)
chain: B3 chain with S59C, E85I
B4 gave a Kd [5] of 4.75 nM and a Kd [8] of 1230 nM.

B5: KQF htRANKL (K194E, Q236H, F269Y) (ligand)
chain: B3 chain with K33E, Q75H, F108Y
B5 showed a Kd [11] of ~23.6 nM.

B6: KQFH htRANKL (K194E, Q236H, F269Y, H270Y) (ligand)
chain: B3 chain with K33E, Q75H, F108Y, H109Y
notes: also called RANK^high variant
In the case of B6, the binding result [12] is reported as “no binding”, the “fold greater affinity than wild-type htRANKL” value [13] is reported as ~500 fold and the “fold longer dissociation time than WT htRANKL” value [13] is reported as 200 fold. The “t1/2 (dissociation time)” value [13] was 11.2 min, the Kd [9] was 3.37 nM and the Kd [11] was ~1.4 nM.

B7: K/Q (protein)
chain: MRRASRDYGKYLRSSEEMGSGPGVPHEGPLHPAPSAPAPAPPPAASRSMFLALLGLGLGQVVCSIALFLYFRAQMDPNRISEDSTHCFYRILRLHENADLQDSTLESEDTLPDSCRRMKQAFQGAVQKELQHIVGPQRFSGAPAMMEGSWLDVAQRGKPEAQPFAHLTINAASIPSGSHKVTLSSWYHDRGWAEISNMTLSNGKLRVNQDGFYYLYANICFRHHETSGSVPTDYLHLMVYVVKTSIKIPSSHNLMKGGSTKNWSGNSEFHFYSINVGGFFKLRAGEEISIQVSNPSLLDPDQDATYFGAFKVQDID
B7 gave a Kd [11] of ~69.7 nM.

B8: Q236H (protein)
chain: B7 chain with E194K
Binder B8 has a Kd [11] of ~346 nM.

B9: H270Y (protein)
chain: B7 chain with E194K, H236Q, H270Y
Binder B9 has a Kd [10] of ~276 nM and a Kd [11] of ~465 nM.

B10: K194E (protein)
chain: B7 chain with H236Q
B10 gave a Kd [10] of ~71.7 nM.

B11: F269Y (protein)
chain: B7 chain with E194K, H236Q, F269Y
B11 gave a Kd [10] of ~33.3 nM.

B12: single-block, RANK^high scRANKL (ligand)
chain: QPFAHLTINAASIPSGSHKVTLSSWYHDRGWAKISNMTLSNGKLRVNQDGFYYLYANISFRGGSHHETSGSVPTDYLHLMVYVVKTSEKIPSSHNLMKGGSTKNWSGNSEFHFYSINVGGFFKLRAGEEISIQVSNPSLLDPDQDATYFGAFKVQDIDGGSGGGSGGGSGQPFAHLTINAASIPSGSHKVTLSSWYHDRGWAEISNMTLSNGKLRVNQDGFYYLYANISFRHHETSGSVPTDYLHLMVYVVKTSEKIPSSHNLMKGGSTKNWSGNSEYYFYSINVGGFFKLRAGEEISIQVSNPSLLDPDQDATYFGAFKVQDIDGGSGGGSGGGSGQPFAHLTINAASIPSGSHKVTLSSWYHDRGWAEISNMTLSNGKLRVNQDGFYYLYANISFRHHETSGSVPTDYLHLMVYVVKTSEKIPSSHNLMKGGSTKNWSGNSEYYFYSINVGGFFKLRAGEEISIQVSNPSLLDPDQDATYFGAFKVQDIDSSGRENLYFQ
B12 was tested, and the “IC50 of inhibition of signaling / osteoclast formation stimulated by wild-type htRANKL (TRAP activity, FIG. 4D)” value [3] was 0.2 nM.
